Results on 10 molecules are retold here after patent publication US20240400677A1 (ELECTRA THERAPEUTICS, published 2024).

Assay [1] addresses T1, human SIRPγ-His monomer protein (human, UniProt Q9P1W8 29-360).
T1 construct: also called hSIRPγ
Nature of the assay: BLI Octet, V5-scFv PPE captured, SIRP-His 500 nM. Background: BLI is a label-free optical method that tracks binding on a fibre tip over time.

The target of assay [2] is T2, cynomolgus monkey SIRPα on CHO cells (cynomolgus monkey, UniProt A0A2K5VYQ9 31-507).
T2 construct: whole, on cells; also called Cyno SIRPα CHO
T2 sequence: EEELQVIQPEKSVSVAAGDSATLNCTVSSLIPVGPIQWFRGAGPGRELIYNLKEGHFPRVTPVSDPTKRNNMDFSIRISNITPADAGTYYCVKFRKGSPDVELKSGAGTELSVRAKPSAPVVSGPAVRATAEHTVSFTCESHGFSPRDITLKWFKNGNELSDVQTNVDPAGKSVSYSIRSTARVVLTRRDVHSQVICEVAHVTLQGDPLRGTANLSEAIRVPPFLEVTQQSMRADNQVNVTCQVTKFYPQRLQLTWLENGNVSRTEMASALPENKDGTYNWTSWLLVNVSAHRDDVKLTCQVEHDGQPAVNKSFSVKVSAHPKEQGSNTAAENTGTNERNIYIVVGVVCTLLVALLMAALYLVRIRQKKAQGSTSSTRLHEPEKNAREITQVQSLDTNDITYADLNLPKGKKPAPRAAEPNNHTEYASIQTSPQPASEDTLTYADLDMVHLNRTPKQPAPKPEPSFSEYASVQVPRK
Nature of the assay: flow cytometry. On the technique in general: A flow cytometer gives signals particle by particle.

Assay [3] addresses T3, human SIRPβ1 on CHO cells (co-transfected with DAP12) (human, UniProt O00241 30-398).
T3 construct: whole, on cells; co-transfected with DAP12; also called Human SIRPβ1 CHO
Nature of the assay: flow cytometry.

For assay [4], the target named is T4, human SIRPγ on stably transfected CHO cells (human, UniProt Q9P1W8 29-387).
T4 construct: also called Human SIRPγ CHO
T4 sequence (Q9P1W8 29-387 limits assumed): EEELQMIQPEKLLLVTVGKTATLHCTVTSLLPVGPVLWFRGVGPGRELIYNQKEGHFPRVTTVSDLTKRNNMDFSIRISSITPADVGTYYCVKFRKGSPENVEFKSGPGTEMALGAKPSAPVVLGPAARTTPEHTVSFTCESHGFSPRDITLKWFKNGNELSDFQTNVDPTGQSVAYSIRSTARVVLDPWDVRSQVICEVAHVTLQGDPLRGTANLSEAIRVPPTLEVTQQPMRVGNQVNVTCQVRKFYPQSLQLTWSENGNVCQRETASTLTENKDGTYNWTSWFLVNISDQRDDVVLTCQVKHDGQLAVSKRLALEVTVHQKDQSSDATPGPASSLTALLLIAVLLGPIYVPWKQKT
Nature of the assay: flow cytometry, myc-scFv PPE. The procedure: (§1) Selected antibodies were tested for binding to stably transfected human SIRPγ, SIRPαV1, or SIRPβ1 (co-transfected with DAP12) Chinese hamster ovary (CHO) cells via flow cytometry. A titration of select antibodies was added to the cells and detected using a fluorescently labelled secondary anti-rat IgG antibody or anti-human IgG antibody. Graphs depict the median fluorescence intensity (MFI) at each concentration. FIGS. 5A and 5G show the binding curves of select antibodies to human SIRPγ, cynomolgus monkey SIRPγ, human SIRPα, cynomolgus monkey SIRPα, human SIRPβ1, or cynomolgus monkey SIRPβl-expressing CHO cells detected using an anti-rat IgG antibody. FIGS. 5B-5F and 5H-5L show the binding curves of select antibodies to human SIRPγ, cynomolgus monkey SIRPγ, human SIRPα, cynomolgus monkey SIRPα, human SIRPβ1, or cynomolgus monkey SIRPβ1-expressing CHO cells detected using an anti-human IgG antibody. […] For select antibodies, each myc-tagged SIRPγ scFv antibody as crude PPE was incubated with each of the SIRP-expressing cell lines stated above along with the parental CHO-K1 cell line. […] Fold change value <2.0 is considered a non-binder.

Assay [5] deals with T5, cynomolgus monkey SIRPγ on CHO cells (cynomolgus monkey, UniProt Q9P1W8 29-386 (human entry)).
T5 construct: also called Cyno SIRPγ CHO
T5 chain: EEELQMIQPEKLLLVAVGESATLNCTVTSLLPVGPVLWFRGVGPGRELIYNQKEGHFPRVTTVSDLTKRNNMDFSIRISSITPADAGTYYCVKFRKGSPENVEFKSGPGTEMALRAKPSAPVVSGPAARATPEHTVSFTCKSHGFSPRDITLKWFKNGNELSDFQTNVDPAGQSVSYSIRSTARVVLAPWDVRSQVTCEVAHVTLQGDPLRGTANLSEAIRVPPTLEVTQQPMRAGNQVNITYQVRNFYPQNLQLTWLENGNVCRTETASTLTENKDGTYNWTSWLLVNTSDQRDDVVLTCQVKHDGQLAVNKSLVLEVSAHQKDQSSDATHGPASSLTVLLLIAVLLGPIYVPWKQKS
Nature of the assay: flow cytometry, myc-scFv PPE. The procedure: as §1

Bounds are passed on as bounds.

T1 sequence (Q9P1W8 29-360 limits assumed): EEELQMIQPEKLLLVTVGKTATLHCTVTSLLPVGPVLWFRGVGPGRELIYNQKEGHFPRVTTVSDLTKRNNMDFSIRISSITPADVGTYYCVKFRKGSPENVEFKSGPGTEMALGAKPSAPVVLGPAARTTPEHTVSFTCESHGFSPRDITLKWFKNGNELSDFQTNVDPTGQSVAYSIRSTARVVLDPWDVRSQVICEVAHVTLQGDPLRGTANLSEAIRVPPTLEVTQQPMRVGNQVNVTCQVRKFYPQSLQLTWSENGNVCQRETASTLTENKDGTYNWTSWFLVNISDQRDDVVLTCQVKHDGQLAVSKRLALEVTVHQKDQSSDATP
T3 sequence (O00241 30-398): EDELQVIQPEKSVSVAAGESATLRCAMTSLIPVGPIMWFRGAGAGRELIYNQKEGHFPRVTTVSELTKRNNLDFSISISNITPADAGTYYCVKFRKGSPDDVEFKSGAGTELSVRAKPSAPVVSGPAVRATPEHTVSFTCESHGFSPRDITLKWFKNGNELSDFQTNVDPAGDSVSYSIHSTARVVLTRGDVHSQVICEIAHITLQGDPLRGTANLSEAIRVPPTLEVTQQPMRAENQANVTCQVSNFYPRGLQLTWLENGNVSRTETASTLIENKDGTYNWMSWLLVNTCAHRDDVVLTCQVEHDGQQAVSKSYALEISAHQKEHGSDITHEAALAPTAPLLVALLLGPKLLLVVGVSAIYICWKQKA

B1: Antibody 39 (scFv, V domains shown)
VH: QVQLVQSGAEVKKPGASVKVSCKASGGTFSNYGFSWVRQAPGQGLEWMGWMSPSSGNTGYAQKFQGRVTMTRDTSTSTVYMELSSLRSEDTAVYYCARERSGSYFDYWGQGTLVTVSS
VL: EIVMTQSPATLSVSPGERATLSCRASQSVSSYLAWYQQKPGQAPRLLIYGTSTRATGIPARFSGSGSGTEFTLTISSLQSEDFAVYYCQQYGSLPFTFGQGTRLEIK
notes: scFv in crude PPE, V5/myc-tagged
Consider B1, for which, in assay [1], the kdis was in the range of 0.001 to 0.01 s⁻¹. In addition, the binding result in assay [2] and in assay [3] was “no binding (tested: fold change <2.0)” each time. Besides, the “MFI fold change over parental CHO” value in assay [4] turned out to be 16.4 fold; in assay [5], 39.5 fold.

B2: Antibody 53 (scFv, V domains shown)
VH: QVQLVQSGAEVKKPGASVKVSCKASGHTFNNNYIHWVRQAPGQGLEWMGIINPSGGSTSYAQKFQGRVTMTRDTSTSTVYMELSSLRSEDTAVYYCARQIQDYGYYYYGMDVWGQGTTVTVSS
VL: EIVMTQSPATLSVSPGERATLSCRASQSVSKYLAWYQQKPGQAPRLLIYAISARAAGIPARFSGSGSGTEFTLTISSLQSEDFAVYYCQQYYSSPPTFGQGTKVEIK
notes: as for B1
Take B2: in assay [1], the kdis is > 0.01 s⁻¹. Further, the binding result in assay [2] and in assay [3] was “no binding (tested: fold change <2.0)” throughout. Also, the “MFI fold change over parental CHO” value in assay [4] was 5.97 fold; in assay [5], 6.94 fold.

B3: Antibody 44 (scFv, V domains shown)
VH: QVQLVQSGAEVKKPGSSVKVSCKASGGTFSKIAVSWVRQAPGQGLEWMGLINPNSGGTDYAQKFQGRVTITADESTSTAYMELSSLRSEDTAVYYCAKDFRGGDYYYYGMDVWGQGTTVTVSS
VL: EIVMTQSPATLSVSPGERATLSCRASQSVSSNLAWYQQKPGQAPRLLIYGASTRATGIPARFSGSGSGTEFTLTISSLQSEDFAVYYCQQYNTYPITFGQGTKVEIK
notes: as for B1
On to B3, for which the kdis in assay [1] is > 0.01 s⁻¹. The binding result in assay [2] and in assay [3] was “no binding (tested: fold change <2.0)” in each case. The “MFI fold change over parental CHO” value in assay [4] came out at 16 fold; in assay [5], 26.7 fold.

B4: Antibody 34 (scFv, V domains shown)
VH: QVQLVQSGAEVKKPGASVKVSCKASGYTFSNYYMHWVRQAPGQGLEWMGWMNPNSGNTGYAQKFQGRVTMTRDTSTSTVYMELSSLRSEDTAVYYCARASMYSSSGFDYWGQGTLVTVSS
VL: DIVMTQSPLSLPVTPGEPASISCRSSQSLLHSNGYNYLDWYLQKPGQSPQLLIYLASTRAPGVPDRFSGSGSGTDFTLKISRVEAEDVGVYYCMQGSHWPPSFGQGTRLEIK
notes: as for B1
As to B4, the kdis in assay [1] lay within 0.001 to 0.01 s⁻¹. Moreover, the binding result in assay [2] and in assay [3] was “no binding (tested: fold change <2.0)” throughout. Besides, the “MFI fold change over parental CHO” value in assay [4] was 18.7 fold; in assay [5], 12 fold.

B5: Antibody 48 (scFv, V domains shown)
VH: QVQLVQSGAEVKKPGASVKVSCKASGYTFTSYYMHWVRQAPGQGLEWMGWMNPNSGNTGYAQKFQGRVTMTRDTSTSTVYMELSSLRSEDTAVYYCARDQMYSSYGMDVWGQGTTVTVSS
VL: DIQMTQSPSSLSASVGDRVTITCRASESITNWLAWYQQKPGKAPKLLIYKASSLESGVPSRFSGSGSGTDFTLTISSLQPEDFATYYCQQSYGTPYTFGQGTKVEIK
notes: as for B1
As to B5, in assay [1], the kdis is 0.001 to 0.01 s⁻¹. Further, the binding result in assay [2] and in assay [3] was “no binding (tested: fold change <2.0)” each time. For the same molecule, the “MFI fold change over parental CHO” value was found to be 12.1 fold in assay [4] and 9.25 fold in assay [5].

B6: Antibody 36 (scFv, V domains shown)
VH: QVQLVQSGAEVKKPGASVKVSCKASGYTFTDNYLHWVRQAPGQGLEWMGIIETSGGSTDYAQKFQGRVTMTRDTSTSTVYMELSSLRSEDTAVYYCARSFGGYSYDDAFDIWGQGTTVTVSS
VL: DIQMTQSPSSLSASVGDRVTITCQASQGISNYLNWYQQKPGKAPKLLIYAASSLQSGVPSRFSGSGSGTDFTLTISSLQPEDFATYYCQQSYSSPYTFGQGTKVEIK
notes: as for B1
For B6, in assay [1], the kdis is < 0.001 s⁻¹. The binding result in assay [2] and in assay [3] was “no binding (tested: fold change <2.0)” in each case. The “MFI fold change over parental CHO” value came to 42.4 fold in assay [4] and 37.7 fold in assay [5].

B7: Antibody 51 (scFv, V domains shown)
VH: QVQLVQSGAEVKKPGASVKVSCKASGYTFTRYDINWVRQAPGQGLEWMGWMNPNSGNTGYAQKLQGRVTMTRDTSTSTVYMELSSLRSEDTAVYYCARERVGYCSSTSCLHPLDYWGQGTLVTVSS
VL: DIQMTQSPSSLSASVGDRVTITCRASQGIRNDLGWYQQKPGKAPKLLIYSASNLQSGVPSRFSGSGSGTDFTLTISSLQPEDFATYYCQQSYDVPLTFGGGTKVEIK
notes: as for B1
In turn, B7 had a kdis in assay [1] of 0.001 to 0.01 s⁻¹. The binding result in assay [2] and in assay [3] was “no binding (tested: fold change <2.0)” each time. In addition, the “MFI fold change over parental CHO” value in assay [4] came to 20 fold; in assay [5] it was 18.8 fold.

B8: Antibody 45 (scFv, V domains shown)
VH: QVQLVQSGAEVKKPGASVKVSCKASGYTFTSYGISWVRQAPGQGLEWMGWISAYNGNTNYAQKFQGRVTMTRDTSTSTVYMELSSLRSEDTAVYYCARGTYYDYIWGSYRYSWFDYWGQGTLVTVSS
VL: not shown
notes: as for B1
In the case of B8, in assay [1], the kdis is > 0.01 s⁻¹. For the same molecule, the binding result in assay [2] and in assay [3] was “no binding (tested: fold change <2.0)” each time. Besides, the results for the “MFI fold change over parental CHO” value in assay [4] and in assay [5] were 24.3 fold and 18.2 fold, respectively.

B9: Antibody 38 (scFv, V domains shown)
VH: QVQLVQSGAEVKKPGASVKVSCKASGGTFSSYDINWVRQAPGQGLEWMGWMNPNSGNTGYAQKFQGRVTMTRDTSTSTVYMELSSLRSEDTAVYYCARDLTLYCSSTSCLDAFDYWGQGTLVTVSS
VL: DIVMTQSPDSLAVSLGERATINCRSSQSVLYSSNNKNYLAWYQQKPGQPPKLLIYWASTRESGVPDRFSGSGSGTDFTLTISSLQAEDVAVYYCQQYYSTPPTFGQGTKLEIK
notes: as for B1
In assay [1], B9 came in with a kdis of 0.001 to 0.01 s⁻¹. Also, the binding result in assay [2] and in assay [3] was “no binding (tested: fold change <2.0)” throughout. Besides, the “MFI fold change over parental CHO” value stood at 14.8 fold in assay [4] and 16.7 fold in assay [5].

B10: Antibody 52 (scFv, V domains shown)
VH: QVQLVQSGAEVKKPGASVKVSCKASGYTFTSYDINWVRQAPGQGLEWMGWISGYNGNTNYAQKFQGRVTMTRDTSTSTVYMELSSLRSEDTAVYYCARSFDWLLLLDYWGQGTLVTVSS
VL: DIQMTQSPSSLSASVGDRVTITCRASQSISSWLAWYQQKPGKAPKLLIYDATTLESGVPSRFSGSGSGTDFTLTISSLQPEDFATYYCQQYDSYPWTFGQGTKLEIK
notes: as for B1
Regarding B10, the kdis in assay [1] was > 0.01 s⁻¹. The binding result in assay [2] and in assay [3] was “no binding (tested: fold change <2.0)” throughout. Besides, the “MFI fold change over parental CHO” value in assay [4] came to 14.7 fold; in assay [5], 16.3 fold.
